Measured values reported in patent US20180002437A1 (ABRUZZO THERANOSTIC S R L, published 2018).
Substitutions are numbered along the chain they refer to.

Experiments:
[1] = molecular target: T1, human Trop-2 on the cell surface (native, endogenous or transfected) (human, UniProt P09758 27-323); assay: cell-based or functional assay
T1 sequence: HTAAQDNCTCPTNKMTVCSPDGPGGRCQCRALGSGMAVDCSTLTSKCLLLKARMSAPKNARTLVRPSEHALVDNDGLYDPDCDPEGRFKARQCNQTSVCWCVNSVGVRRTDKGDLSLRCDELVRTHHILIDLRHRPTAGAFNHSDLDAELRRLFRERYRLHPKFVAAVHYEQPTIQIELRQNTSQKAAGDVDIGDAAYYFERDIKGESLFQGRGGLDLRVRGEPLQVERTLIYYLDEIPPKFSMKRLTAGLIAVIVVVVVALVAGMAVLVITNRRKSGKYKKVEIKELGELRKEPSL

[2] = molecular target: T1, human Trop-2 on the cell surface …; assay: flow cytometry, MCF-7 cells, goat anti-human Alexa-488
Description: FIG. 38: Specific recognition of Trop-2 by the humanized monoclonal antibodies according to the present invention - analysis by flow cytometry. (A) human metastatic colon cancer KM12SM cells transfected with a vector expressing Trop-2 (left panel) or with the empty vector (right panel) were incubated with the ‘humanized anti-Trop-2 monoclonal antibody Hu2EF-7. […] Unstained negative controls (thin line) are shown for comparison. (B) Human colon cancer HT29 cells (left panel) or breast cancer MCF-7 cells (right panel) expressing Trop-2 were incubated with the humanized Hu-2EF-7 and Hu-2G10-6anti-Trop-2monoclonal antibodies respectively.

[3] = molecular target: T1, human Trop-2 on the cell surface …; assay: flow cytometry competition on Colo205 cells (FIG. 31 and FIG. 37)
Description: FIG. 37: Relative affinity of the 2EF and Hu2EF-7 antibodies for native Trop-2—Flow citometry analysis. Human colon cancer COLO205 cells, which are positive for Trop-2, were incubated with FITC-labelled 2EF antibody pre-mixed with increasing concentrations of unlabelled Hu2EF-7 purified from CHO-K1 or YB2/0 cells.
(§1) The relative affinity of Hu2EF-4 e Hu2EF-5 for the native Trop-2 antigen was also analysed by means of […] competitive binding measured by flow cytometry on live tumor cells that express surface Trop-2. […] After 20 min at 4° C. cells were washed with 5 ml of SM and resuspended in 500 μl di SM with 0.5 μg/ml propidioiodide to discriminate dead cells). Fluorescence was then analysed by flow cytometry (FACScalibur, FACScan, Becton Dickinson, Sunnyvale, Calif.) as previously described (Alberti, Nutini et al. 1994) (FIG. 31). […] Simila results were obtained for the Hu2EF-4 antibody.

[4] = molecular target: T1, human Trop-2 on the cell surface …; assay: flow cytometry competition with 2G10-488 on MTE 4-14/Trop-2 and MCF7 cells (sentence also sums up the competitive ELISA)
Description: The binding to Trop-2 of the purified Ch2G10, Hu2G10-5 and Hu2G10-6 antibodies was also characterized by flow cytometry using alive cells that express native surface Trop-2 (either ndogenous or transfected). […] The cells were then washed and analyzed by flow cytometry as described.

[5] = molecular target: T1, human Trop-2 on the cell surface …; assay: flow cytometry competition on Colo205 cells, competitor of 2EF-488 at 9x and 27x
Description: as §1

[6] = molecular target: T1, human Trop-2 on the cell surface …; assay: flow cytometry competition on Colo205 cells, competitor of 2EF-488
Description: as §1

B1: humanized Hu2EF-7 antibody (Hu2EF VH7 and VL2, IgG1/kappa) (antibody, V domains shown)
VH: QVQLVQSGAEVKKPGASVKVSCKASGYTFTNYWIGWVKQAPGQGLEWIGDIYPGGGYTNYNEKFKGRATLTADTSASTAYMELSSLRSEDTAVYYCARGTGGGDYWGQGTLVTVSS
VL: DIVLTQSPDSLAVSLGERATINCRASQSVSTSSYSYMHWYQQKPGQPPKLLIKYASNLESGVPDRFSGSGSGTDFTLTISSLQAEDVAVYYCQHSWEIPYTFGGGTKLEIKR
For B1, the “EC50 of ADCC reporter bioassay (luciferase luminescence; Jurkat effector cells with V158 FcgammaRIIIa and NFAT-luciferase; MCF7 target cells)” value [1] was 0.052 µg/mL.

B2: humanized Hu2G10-6 antibody (Hu2G10 VH2 and VL3, IgG1/kappa) (antibody, V domains shown)
VH: QVQLVQSGAEVKKPGASVKVSCKASGFTFSSSYISWLRQAPGQRLEWIAWIYAGTGGTSYNQKFTGRVTLTVDTSASTAYMELSSLRSEDTAVYYCARHNPRYYAMDYWGQGTTVTVSS
VL: DTQMTQSPSSLSASVGDRVTITCITSTDIDDDMNWYQQKPGKAPKLLISEGNTLRPGVPSRFSGSGYGTDFTFTISSLQPEDIATYYCLQSDNLPYTFGGGTKVEIKR
B2: binds [2].

B3: humanized Hu2G10-5 antibody (Hu2G10 VH1 and VL3, IgG1/kappa) (antibody, V domains shown)
VH: B2 VH with R67K, V68A
VL: B2 VL
B3 was tested, and the “EC50 of ADCC reporter bioassay (luciferase luminescence; Jurkat effector cells with V158 FcgammaRIIIa and NFAT-luciferase; MCF7 target cells)” value [1] was 4.15 µg/mL.

B4: mouse 2EF antibody (hybridoma PD 08021) (antibody, V domains shown)
VH: QVQLQQSGAELVRPGTSVKMSCKAAGYTFTNYWIGWVKQRPGHGLEWIGDIYPGGGYTNYNEKFKGKATLTADTSSSTAYMQLSSLTSEDSAIYYCARGTGGGDYWGQGTLVTVSA
VL: DIVLTQSPASLAVSLGQRATISCRASQSVSTSSYSYMHWYQQKPGQPPKLLIKYASNLESGVPARFSGSGSGTDFTLNIHPVEEEDTATYYCQHSWEIPYTFGGGTKLEIK
notes: Mouse monoclonal purified from the hybridoma; also called murine 2EF
B4: binds [3].

B5: chimeric 2G10 IgG1/kappa antibody (Ch2G10) (antibody, V domains shown)
VH: QGQMQQSGAELVKPGASVKLSCKTSGFTFSSSYISWLKQKPRQSLEWIAWIYAGTGGTSYNQKFTGKAQLTVDTSSSTAYMQLSSLTSEDSAIYYCARHNPRYYAMDYWGQGTSVTVSS
VL: ETTVTQSPASLSMAIGEKVTIRCITSTDIDDDMNWYQQKPGEPPKLLISEGNTLRPGVPSRFSSSGYGTDFVFTIENMLSEDVADYYCLQSDNLPYTFGGGTKLEIKR
notes: also called Ch2G10-IgG1/k
B5: binds [4].

B6: mouse 2G10 antibody (hybridoma PD 08020) (antibody, V domains shown)
VH: B5 VH
VL: ETTVTQSPASLSMAIGEKVTIRCITSTDIDDDMNWYQQKPGEPPKLLISEGNTLRPGVPSRFSSSGYGTDFVFTIENMLSEDVADYYCLQSDNLPYTFGGGTKLEIK
notes: Mouse monoclonal from the hybridoma; also called murine 2G10
B6: binds [4].

B7: humanized Hu2EF-5 antibody (VH5-Hu2EF and VL1-Hu2EF, IgG1/kappa) (antibody, V domains shown)
VH: B1 VH with K38R, A76T
VL: DIVMTQSPDSLAVSLGERATINCRASQSVSTSSYSYMHWYQQKPGQPPKLLIKYASNLESGVPDRFSGSGSGTDFTLTISSLQAEDVAVYYCQHSWEIPYTFGQGTKLEIK
notes: human IgG1/kappa constant regions
B7: binds [5].

B8: humanized Hu2EF-4 antibody (VH4-Hu2EF and VL1-Hu2EF, IgG1/kappa) (antibody, V domains shown)
VH: B1 VH with K38R
VL: B7 VL
notes: as for B7
B8: binds [6].
